For assay [1], the system named is chick dorsal root ganglion neurons, myelin-induced neurite outgrowth inhibition. Description: Neurite outgrowth of embryonic day 13 chick DRG neurons on myelin (Example 29). Format: cell-based. Particulars: 8 μM NgR(310)ecto-Fc; MP 10 μg/nl as printed. The method, then: In investigating combined treatment with methyprednisolone (MP) and NgR(310)ecto-Fc for spinal cord injury (SCI), we sought to verify that these reagents have independent mechanisms of action. Briefly, myelin was dried overnight in poly-L-lysine-precoated plates (Becton Dickinson, Bedford, Mass., USA) at 80 or 400 ng/well (2.5 and 12.7 ng/mm^2, respectively). Wells were then coated with 10 µg/ml laminin (Calbiochem, La Jolla, Calif., USA) for 1 hour at foom temperature (22-24 C). Embryonic day 13 chick dorsal root ganglion neurons were dissociated and plated for 6-8 hours as previously described (GrandPre et al., 2000; Fournier et al., 2001). Neurons were treated with 8 μM NgR(310)ecto-Fc in the presence or absence of 10 μg/nl MP (Pharmacia, Kalamazoo, Mich., USA) for the entire outgrowth period. Neurons were then fixed and stained with βIII tubulin antibody (Covance, Princeton, N.J., USA) and neurite outgrowth was quantified using an automated cellular imaging and analysis system (Axon Instrument, Union City, Calif.; USA). Neurite outgrowth per cell was normalized to the average of duplicate control wells for each experiment (n=3). […] These in vitro data support the hypothesis that MP and NgR(310)ecto-Fc will enhance SCI recovery in a sequentially effective manner.

The subject of assay [2] is rats with dorsal hemisection (CST transection). The assay can be described thus: Functional recovery after spinal cord transection in rats (BBB, stride length; Example 30). Type of assay: in vivo, rat. The procedure: Briefly, female Long Evans rats (7 weels old; Charles River, Wilmington, Mass., USA) were anesthetized using 25 mg/kg midazolam i.p. (Abott Laboratories, Chicago, Ill., USA) and 2-3% fluothane (Baxter, Deerfield, Ill., USA) in O2 and a dorsal laminectomy performed at spinal level T6 and T7. General anesthesia wa maintained at 1.5-2% fluothane in O2 A dorsal hemisection was performed completely interrupting the main dorsomedial and the mino dorsplateral corticospinal tract (CST) components. A microscapel was used to sterotaxically transect the cord at a depth of 1.8 mm from the surface of the cord. Immediately after CST transection, an intrathecal catheter was inserted into the subarachnoid space at T7 and connected to a primed mini-osmotic pump inserted into the subcutaneous space. […] Functional recovery was assessed using the BBB openfield scoring method (Basso et al., J. Neurotrauma 12:1-21 (1995)) the following day and weekly thereafter.
A discriminating point on the BBB score is a score of 14, corresponding to consistent weight supported planter steps and consistent hindlimb-forelimb coordination.

In assay [3] the test system is rats with CST transection. The assay can be described thus: BDA-labeled axon counts caudal to spinal cord transection in rats (Example 31). Type of assay: in vivo, rat. Particulars: 15 mm caudal to the injury site. The method, then: Treatment with NgR(310)ecto-Fc or combined treatment with MP and NgR(310)ecto-Fc enhanced axonal plasticity/regeneration after spinal cord transection. Briefly, for histological tracing of the CSTs, 2 weeks after CST transection animals were re-anesthetized and an incision made in the scalp. The area around the skin incision was injected with a local anesthetic, the left sensorimotor cortex exposed via a craniotomy and 7 μL 10% biotin dextran amine (BDA; 10,000 MW; Molecular Probes, Eugene, Oreg., USA) in PBS injected using a nanoliter injector and micro4 controller at 12 points 0-3.5 mm posterior to Bregma and […] lateral to the midline at a depth of 1 mm below the surface of the cortex. In some instances, the CST was labeled bilaterally using the same procedure.
At 28 days after CST transection, the rats were anesthetized with inactin (100-110 mg/kg i.p.) and transcardially perfused with heparinized saline (100 ml, 10 iu heparin) followed by 4% paraformaldehyde (150 ml). […]
Frozen sections (50 μm) were serially cut and stained with strepavidin-conjugated AlexaFluor-594 (1:200; Molecular Probes) to visualize labeled CST axons. […] Every eighth section, i.e., sections 400 μm apart, was counted for each animal at each level of the cord and the values were expressed as mean number of axons per section.

B1: NgR(310)ecto-Fc: ectodomain of the rat NgR1 (27-310) fused to a rat IgG (protein)
chain: PCPGACVCYNEPKVTTSRPQQGLQAVPAGIPASSQRIFLHGNRISYVPAASFQSCRNLTILWLHSNALAGIDAAAFTGLTLLEQLDLSDNAQLRVVDPTTFRGLGHLHTLHLDRCGLQELGPGLFRGLAALQYLYLQDNNLQALPDNTFRDLGNLTHLFLHGNRIPSVPEHAFRGLHSLDRLLLHQNHVARVHPHAFRDLGRLMTLYLFANNLSMLPAEVLVPLRSLQYLRLNDNPWVCDCRARPLWAWLQKFRGSSSGVPSNLPQRLAGRDLKRLATSDLEGCA
modifications: left off: a dimerising Fc or GST
notes: ectodomain of the rat NgR1 (27-310) fused to a rat IgG
In the case of B1, the “effect on neurite outgrowth on a myelin substrate” value in assay [1] was “reverse the inhibition”. Also, the “BBB scores normalized to day 2” value in assay [2] (2, 3 and 4 weeks after SCI) was “significant improvement”. Also, in assay [2] (4 weeks after SCI), the “mean stride length vs controls” value was “significantly improved”. Moreover, the “Mean BBB score” value in assay [2] (after 4 weeks) came to 14.8±0.24. In addition, the “frequency of rats with BBB score of 14 or greater (consistent plantar stepping and coordinated movement)” value in assay [2] (by 4 weeks) stood at 100%. The “number of BDA-labeled axons” value in assay [3] is recorded as “significantly greater numbers”.

Values taken from patent US9228015B2, “Nogo receptor antagonists and methods of increasing neurite outgrowth” (Biogen Idec MA Inc., priority 2006, dated 2016).
